Source: patent US20060247420A1, “Immune cell recptor ligand and immune cell receptor” (priority 2002, published 2006)

System: NKG2D on peripheral CD8^+ T-cells
Experiment: NKG2D expression on CD8+ lymphocytes after co-culture with K32 aAPCs, flow cytometry
Format: cell-based, human
Conditions: peripheral CD8^+ T-cells co-cultured 4 days with K32 aAPCs; versus mock-transduced K32
Source text: CD8^+ lymphocyte stimulation and cytokine release. To analyze the effects of Letal on the T-cell proliferation and production of cytokines, a previously described artificial antigen-presenting cell (aAPC) model was used (Maus et al, Nat. Biotechnol. 20(2):143-148 (2002)). Briefly, the system is based on the stable expression of the human low-affinity Fcγ receptor, CD32, on K562 cells (K32 cell line). K32 cell-based aAPCs were additionally transduced with Letal or with the empty vector as described above, irradiated with 100Gy, and washed twice with RPMI medium. Letal^+-K32 cells or mock transductants were loaded, when indicated, with anti-CD3 (OKT3), or anti-CD3 plus anti-CD28 (mAbs; 9.3) monoclonal antibodies at 0.5 μg/ml for 10 min at room temperature. Loaded &APCs were mixed with CD8^+ T-cells at a 1:2 ratio and the T-cell concentration was maintained at 0.5×10^6 cells/ml throughout the culture. Cultures were pulsed with 1 μCi of [^3H] thymidine from day 2 to day 5 and incorporated radioactivity was determined using a 1450 Microbeta scintillation counter (Wallac, Turku, Finland). The amounts of secreted IL-2 and IFNγ were determined by commercial ELISA, following the manufacturer's instructions (R & D Systems). Flow cytometry was performed with a FACScalibur (BD Biosciences, San Jose, Calif.). […]

B1: Letal: MHC-I related transmembrane ligand for the NKG2D receptor, polypeptide of SEQ ID NO:8; tested as expressed on transduced cells (protein)
chain: GGHSLCFNFTIKSLSRPGQPWCEAQVFLNKNLFLQYNSDNNMVKPLGLLGKKVYATSTWGELTQTLGEVGRDLRMLLCDIKPQIKTSDPSTLQVEMFCQREAERCTGASWQFATNGEKSLLFDAMNMTWTVINHEASKIKETWKKDRGLEKYFRKLSKGDCDHWLREFLGHWEAMPEPTVSPVNASDIHWSSSSLPDRWIILGAFILLVLMGIVLICVWWQNGEWQAGLWPLRTS
- increase of NKG2D expression: 2 fold
